Consider eight molecules from PMC9238395, “Identification and Tetramer Structure of Hemin-Binding Protein SPD_0310 Linked to Iron Homeostasis and Virulence of Streptococcus pneumoniae” (mSystems, 2022).

The chains are these.
B2: SPD_0310 (natural protein)
chain: MKKQAFSSEQYLNLQRDHILERINQFDGKLYLEFGGKMLEDFHAARVLPGYEPDNKIKLLQELKEQVEVVIAINASNIEHSKARGDLGISYDQEVLRLIDKFNELGIFVGSVVITQYAGQPAADAFRNQLEKNGIDSYLHYPIKGYPTDMDHIISPEGMGKNDYIKTSRNLIVVTAPGPGSGKLATCMSNMYHDQINGIKSGYAKFETFPIWNLPLHHPVNLAYEAATADLDDVNMIDPFHLQTYGETTVNYNRDIEIFPVLKRMLERILGKSPYASPTDMGVNMVGFAITDDEAAVEASKQEIIRRYYQTVLDFKAEKVGEAAVKKIELLMNDLGITPADRKVAVVARQKAEETGGPALAFELPNGEIVTGKNSELFGPTAAALINAIKKSADIAKEVKLIEPEVVKPIQGLKIDHLGSRNPRLHSNEILIALAITATENPDAARAMEELGNLKGSEAHSTIILTDEDKNVLRKLGINVTFDPYYQYDRLYRK
notes: SPD_0310, hypothetical protein of the UPF0371 family, S. pneumoniae D39; spd_0310 gene cloned from genomic DNA into pGEX-4T-1 (BamH I/Sal I); Homotetramer by crystal structure and DLS; also called apo-0310; apo-SPD_0310

Data set [1] has as its target T1, SPD_0310 (Streptococcus pneumoniae, UniProt Q04MC1, M38A/L39A/G88A/R97A).
T1 sequence (Q04MC1 1-494 M38A/L39A/G88A/R97A): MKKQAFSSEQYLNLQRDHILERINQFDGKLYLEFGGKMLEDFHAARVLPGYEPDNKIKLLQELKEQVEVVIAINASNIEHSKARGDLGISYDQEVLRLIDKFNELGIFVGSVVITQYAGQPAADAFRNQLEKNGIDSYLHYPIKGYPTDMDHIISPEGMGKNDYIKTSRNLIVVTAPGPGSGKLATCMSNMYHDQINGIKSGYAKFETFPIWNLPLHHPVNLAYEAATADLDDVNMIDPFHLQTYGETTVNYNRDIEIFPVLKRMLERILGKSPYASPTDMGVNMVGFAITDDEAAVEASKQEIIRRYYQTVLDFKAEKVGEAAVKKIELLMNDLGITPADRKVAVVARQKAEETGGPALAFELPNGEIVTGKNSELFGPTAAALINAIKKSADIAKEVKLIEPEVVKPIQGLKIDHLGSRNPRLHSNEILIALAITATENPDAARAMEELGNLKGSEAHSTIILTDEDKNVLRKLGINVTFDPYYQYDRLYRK
The data set can be described thus: fluorescence quenching titration. Type of data set: binding.

Data set [2] deals with T2, SPD_0310 (Streptococcus pneumoniae, UniProt Q04MC1, E40A/R307A).
T2 sequence (Q04MC1 1-494 E40A/R307A): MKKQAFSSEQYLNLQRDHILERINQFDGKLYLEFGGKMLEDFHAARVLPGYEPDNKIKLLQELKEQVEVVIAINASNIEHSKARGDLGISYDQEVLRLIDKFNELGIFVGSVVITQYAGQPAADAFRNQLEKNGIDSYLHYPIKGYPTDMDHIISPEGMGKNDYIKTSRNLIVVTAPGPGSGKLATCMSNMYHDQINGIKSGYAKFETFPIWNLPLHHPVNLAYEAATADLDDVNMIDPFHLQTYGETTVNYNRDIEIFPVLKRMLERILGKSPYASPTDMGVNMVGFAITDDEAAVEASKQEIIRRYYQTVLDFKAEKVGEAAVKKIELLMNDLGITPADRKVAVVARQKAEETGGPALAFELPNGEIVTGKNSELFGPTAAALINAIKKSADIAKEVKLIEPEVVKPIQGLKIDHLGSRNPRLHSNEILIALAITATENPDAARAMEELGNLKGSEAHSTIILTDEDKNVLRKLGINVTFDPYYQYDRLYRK
The experiment in a line: fluorescence quenching titration. It is filed as binding.

The target of data set [3] is T3, SPD_0310 (Streptococcus pneumoniae, UniProt Q04MC1).
T3 construct: recombinant SPD_0310 expressed from pGEX-4T-1, GST tag removed with thrombin; homotetramer
The data set can be described thus: SPR; also dialysis/ICP-MS, hemin-agarose pulldown, UV-Vis shift, CD thermal shift, stopped-flow fluorescence. It is filed as binding. (In general: SPR reads the build-up and loss of mass on a sensor chip optically.)

Data set [4] deals with SPD_0310 (S. pneumoniae D39) (UniProt Q04MC1). The data set can be described thus: SPR; OpenSPR; SPD_0310 immobilised on a gold nanoparticle COOH sensor chip; analytes in 1× PBS, 30 μL/min; regeneration with 0.5 to ~10 mM HCl; 1:1 model.
The target in data set [5] is B2. The description is as above. The conditions noted are these: both partners purified.
Data set [6] concerns the molecule itself. The experiment in a line: dynamic light scattering; fresh SPD_0310 in the native state, 3 μM in 1× PBS, 25°C.

On to `C=CC1=C(C)C2=Cc3c(C=C)c(C)c4[n]3[Fe]([Cl])[n]3c(c(C)c(CCC(=O)O)c3=CC3=NC(=C4)C(C)=C3CCC(=O)O)=CC1=N2` [hemin], for which the “% of WT binding constant” value at SPD_0310 [1] is on record as 56 % of WT binding constant; on SPD_0310 [2] it was 11 % of WT binding constant. Also, the dissociation constant (Kd) (commonly the equilibrium constant for the complex coming apart) on SPD_0310 [3] was 96.9 nM.
In turn, bovine lactoferrin (natural protein) gave a Kd in data set [4] of 303 nM.

B1: GAPDH (natural protein, S. pneumoniae D39, UniProt A0A0H2US80 1-335, looked up)
chain: MVVKVGINGFGRIGRLAFRRIQNVEGVEVTRINDLTDPVMLAHLLKYDTTQGRFDGTVEVKEGGFEVNGKFIKVSAERDPEQIDWATDGVEIVLEATGFFAKKEAAEKHLKGGAKKVVITAPGGNDVKTVVFNTNHDVLDGTETVISGASCTTNCLAPMAKALQDNFGVVEGLMTTIHAYTGDQMILDGPHRGGDLRRARAGAANIVPNSTGAAKAIGLVIPELNGKLDGSAQRVPTPTGSVTELVAVLEKNVTVDEVNAAMKAASNESYGYTEDPIVSSDIVGMSYGSLFDATQTKVLDVDGKQLVKVVSWYDNEMSYTAQLVRTLEYFAKIAK
notes: GAPDH (Gap) of S. pneumoniae D39, recombinant; also called Gly-3-pho dehydrogenase; source: expressed and purified using the GST system
With B1, in the data set with SPD_0310 [5], the affinity, expressed as Kd, was 103 ± 1.29 nM.
With B2, the stoichiometry N (in general, the number of molecules, sites or subunits per partner or assembly) in data set [6] was determined as 4.

B3: SPD_0227 (natural protein)
chain: MNIEGYSDLLKPELKGKIATADPANSSSAFAQLTNMLQAQGGYKDDKAWSYVKDLFTLIDGIVK
notes: SPD_0227, intracellular iron transporter of S. pneumoniae D39
Molecule B3 came in with a Kd with SPD_0310 [5] of 420 ± 30 nM.

B4: SPD_0226 (natural protein)
chain: MTVGLSYEDSAVKLLNDGANIKVVYPKEGTVFLPASAAIVKKSKNMENAKKFIDFIISQEVQDTLGTTTTNRPVRKNAKTSENMKPIDKIKTLTEDYDYVIKNKSDIVKKYNEVFTDIQSKQ
notes: SPD_0226, intracellular iron transporter of S. pneumoniae D39
For the molecule B4, binding in the data set with SPD_0310 [5] was put at a Kd of 1070 ± 100 nM.

B5: SPD_1609 (natural protein, S. pneumoniae D39, UniProt A0A0H2ZL87 1-355, looked up)
chain: CSGGSNSTTASSSEEKADKSQELVIYSNSVSNGRGDWLTAKAKEAGFNIKMVDIAGAQLADRVIAEKNNAVADMVFGIGAVDSNKIRDQKLLVQYKPKWLDKIDQSLSDKDNYYNPVIVQPLVLIGAPDVKEMPKDWTELGSKYKGKYSIYGLQGGTGRAILASILVRYLDEKGDLGVSEKGWEVAKEYFANAYTLQKGESSVVKALDKESPIQYGMIWGSGALIGQKEQNVEFKVMTPEIGVPFVTEQTMVLSTSKKQALAKEFIDWFGQSEIQVEYSKKFGSIPANKDALKELPEDTKKFVDQVKPQNIDWEAVGKHLDEWVEKAELEYVK
notes: source: expressed and purified using the GST system
B5: the Kd with SPD_0310 [5] was 6.92 ± 0.08 nM.

B6: SPD_0090 (natural protein, S. pneumoniae D39, UniProt A0A0H2ZQK8 1-491, looked up)
chain: CGNLTGNSKKAADSGDKPVIKMYQIGDKPDNLDELLANANKIIEEKVGAKLDIQYLGWGDYGKKMSVITSSGENYDIAFADNYIVNAQKGAYADLTELYKKEGKDLYKALDPAYIKGNTVNGKIYAVPVAANVASSQNFAFNGTLLAKYGIDISGVTSYETLEPVLKQIKEKAPDVVPFAIGKVFIPSDNFDYPVANGLPFVIDLEGDTTKVVNRYEVPRFKEHLKTLHKFYEAGYIPKDVATSDTSFDLQQDTWFVREETVGPADYGNSLLSRVANKDIQIKPITNFIKKNQTTQVANFVISNNSKNKEKSMEILNLLNTNPELLNGLVYGPEGKNWEKIEGKENRVRVLDGYKGNTHMGGWNTGNNWILYINENVTDQQIENSKKELAEAKESPALGFIFNTDNVKSEISAIANTMQQFDTAINTGTVDPDKAIPELMEKLKSEGAYEKVLNEMQKQYDEFLKNKK
notes: as for B5
B6: the Kd with SPD_0310 [5] came out at 3.41 ± 0.01 nM.
